{
  "source": "patent US20220185910A1",
  "about": "(EUREKA THERAPEUTICS, published 2022)",
  "target": "T1, human prostate specific membrane antigen (PSMA) (human, UniProt Q04609 1-750)",
  "T1 construct": "PSMA was on the cell surface: LNCaP and 22Rv1 (endogenous), PC3-PSMA and Jurkat-PSMA (lentiviral transduction); also called hPSMA",
  "T1 sequence (Q04609 whole entry)": "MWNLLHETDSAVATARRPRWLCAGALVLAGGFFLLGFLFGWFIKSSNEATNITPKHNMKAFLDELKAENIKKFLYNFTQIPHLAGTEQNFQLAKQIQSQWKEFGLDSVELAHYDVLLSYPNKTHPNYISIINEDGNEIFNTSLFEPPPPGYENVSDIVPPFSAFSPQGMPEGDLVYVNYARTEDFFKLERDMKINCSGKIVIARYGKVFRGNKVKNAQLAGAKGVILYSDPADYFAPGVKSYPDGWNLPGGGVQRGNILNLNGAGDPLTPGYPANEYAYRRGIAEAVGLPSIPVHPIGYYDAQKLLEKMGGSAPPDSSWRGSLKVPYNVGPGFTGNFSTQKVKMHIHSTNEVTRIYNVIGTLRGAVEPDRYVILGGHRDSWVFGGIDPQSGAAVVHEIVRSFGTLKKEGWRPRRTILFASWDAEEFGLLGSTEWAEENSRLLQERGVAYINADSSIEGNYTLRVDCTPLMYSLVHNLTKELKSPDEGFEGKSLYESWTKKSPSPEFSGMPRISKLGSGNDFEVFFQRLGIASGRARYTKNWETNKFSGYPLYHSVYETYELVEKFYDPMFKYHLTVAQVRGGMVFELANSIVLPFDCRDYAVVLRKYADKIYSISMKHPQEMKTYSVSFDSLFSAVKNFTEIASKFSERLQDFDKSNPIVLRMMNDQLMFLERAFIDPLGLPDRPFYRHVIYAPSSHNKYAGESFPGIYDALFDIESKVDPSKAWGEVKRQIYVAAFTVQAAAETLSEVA",
  "assay": "flow cytometry of phage scFv clones after cell panning on Jurkat-PSMA (parental Jurkat as negative selection)",
  "description": "A collection of human scFv antibody phage display libraries (diversity=10×10¹⁰) constructed by Eureka Therapeutics (i.e., the E-ALPHA® phage display library) was used for the selection of human mAbs specific to PSMA. Specifically, the E-ALPHA® phage display library was used to pan against a Jurkat cell line that has been engineered to express PSMA. The parental Jurkat cell line was used for negative selection. […] The VL in each scFv is underlined, the VH in each scFv is double underlined, and the linker is in bold italic type. The CDRs are in underlined bold type and double underlined bold type.",
  "data": [
    {"binder": "Clone A anti-PSMA scFv (scFv, Human scFv (VL-linker-VH) isolated from the E-ALPHA phage display library; the phage coat fusion is not described; also called phage clone A) scFv: QSVLTQPPSVSGAPGQRVTISCTGSSSNIGAGYDVHWYQQLPGTAPKLLIYGNSNRPSGVPDRFSGSKSGTSASLAITGLQAEDEADYYCQSYDSSLSGYVFGTGTKVTVLGSRGGGGSGGGGSGGGGSLEMAEVQLVQSGAEVKKPGESLKISCKGSGYSFTSYWIGWVRQMPGKGLEWMGIIYPGDSDTRYSPSFQGQVTISADKSISTAYLQWSSLKASDTAMYYCARSMGSSLYASSDVWGQGTLVTVSS", "values": [
      {"measurement": "binding result", "result": "binds"}
    ]}
  ]
}
